Laboratory results published in paper PMC5689134, “Detailed Analysis of Insulin Absorption Variability and the Tissue Response to Continuous Subcutaneous Insulin Infusion Catheter Implantation in Swine” (Diabetes Technology & Therapeutics, 2017).

Test: Insulin lispro absorption PK after 5-U bolus through CSII catheters in swine
Assay type: in vivo
Details: for tmax (time-to-peak) / AUC60 (0-60 min after bolus) / Cmax (maximal plasma insulin level) / AUC (0-160 min after bolus, baseline subtracted): mean ± SD; for AUC60 (0-60 min after bolus) / Cmax (maximal plasma insulin level) / AUC (0-160 min after bolus, baseline subtracted): plasma ELISA
Excerpt: We performed an observational study in six swine to evaluate the PK of insulin lispro (U-100 Humalog; Eli Lilly) infused through CSII catheters implanted for 5 days. Six commercial CSII catheters (CCs) and six investigational CSII catheters (ICs) were inserted into the subcutaneous tissue of each swine. Lispro insulin and saline were infused through the CCs and ICs for 5 days using battery powered insulin pumps and the same basal/bolus pattern of delivery. Additional CCs and ICs were filled with saline and capped (Supplementary Table S1; Supplementary Data are available online at www.liebertpub.com/dia). Insulin PK (Cmax, tmax, AUC, AUC60) following a 5-U bolus were evaluated on days 1, 3, and 5. The tissue surrounding the 72 CSII was excised and pathologically analyzed to elucidate the relationship between the PK of insulin absorption and the inflammatory tissue response to trauma and the CSII cannula.
The study was performed in six nondiabetic ambulatory female swine (68.5 ± 3.6 kg). The protocol was approved by the Institutional Animal Care & Use Committee of Thomas Jefferson University. […] The CVC ports were flushed every 1–3 days using a Huber needle and low-dose heparin solution. One week later, each swine was given general anesthesia and six CCs (Inset™; UnoMedical, Denmark) and six ICs were inserted into the subcutaneous tissue of the abdomen using an aseptic technique according to the manufacturer's instructions. In total, 72 CSII were implanted in six swine.
Two CCs and two ICs were connected to insulin pumps (OneTouch Ping; Animas Corporation, West Chester, PA) containing rapid acting lispro insulin. Two CCs and two ICs were connected to insulin pumps containing saline solution. […] CSII were secured with Tegaderm™ adhesive bandages and the eight insulin pumps were secured within the pockets of a custom vest (Lomir Biomedical, Inc., Supplementary Fig. S2). Insulin lispro was continuously infused through the four CSII catheters at a low basal rate (0.2 U/h/catheter = 0.8 U/h). Insulin and saline were infused using the same basal/bolus pattern throughout the 5-day study.
PK studies were performed on days 1, 3, and 5 after CSII insertion. On day 1, animals recovered from general anesthesia for ∼2 h before starting the PK study. Blood was sampled from a CVC every 10 min for ∼2 h, followed by every 15 min for 1 h before administering the second bolus and repeating the sampling schedule. When blood sample acquisition from a CVC was not possible, samples were obtained from the alternate CVC or occasionally omitted. The swine were able to stand up, lie down, and consume food (apples, biscuits) and water during the PK study. The concentration of blood glucose (BG) was measured in duplicate using the YSI analyzer. Samples were centrifuged to plasma and stored at −80°C for subsequent insulin assay. A stable baseline was established for ∼30 min (three to five BG values).
We then infused a 5-U bolus of insulin into a CC or an IC in a randomized order. The concentration of BG was maintained between 100 and 160 mg/dL by adjusting an intravenous infusion of 20% dextrose every 5–10 min for 3 h. A second baseline was then established for ∼30 min to ensure that BG levels have returned to baseline values after the morning insulin bolus, followed by a 5-U bolus of insulin infused into the alternate CSII catheter. The afternoon PK study ended ∼3 h later. Thus, two PK studies were performed on days 1, 3, and 5 in the same swine using the same CC and IC each day.
The concentration of lispro insulin was measured in plasma samples by PreClinOmics, Inc. (Indianapolis, IN) using a porcine insulin ELISA and an Iso-insulin ELISA (Mercodia AB, Uppsala, Sweden). The lispro insulin concentration was calculated by subtracting the porcine insulin from the total insulin concentration. […]

[1] = day 5, 5-U bolus via CC, Mean±SD of swine 2-6 (Table S4), SD
[2] = day 5, 5-U bolus via CC, individual animal: swine 2
[3] = day 5, 5-U bolus via CC, individual animal: swine 3
[4] = day 5, 5-U bolus via CC, individual animal: swine 4
[5] = day 5, 5-U bolus via CC, individual animal: swine 5
[6] = day 5, 5-U bolus via CC, individual animal: swine 6
[7] = day 5, 5-U bolus via IC (pump occlusion alarm during bolus), individual animal: swine 3
[8] = day 5, 5-U bolus via IC (pump occlusion alarm during bolus), individual animal: swine 4
[9] = day 5, 5-U bolus via IC (pump occlusion alarm during bolus), individual animal: swine 5
[10] = day 5, 5-U bolus via IC, Mean±SD of swine 1-6 (Table S4), SD
[11] = day 5, 5-U bolus via IC, individual animal: swine 1
[12] = day 5, 5-U bolus via IC, individual animal: swine 2
[13] = day 5, 5-U bolus via IC, individual animal: swine 6
[14] = swine, 5-U s.c. bolus via CC, day 1, n = 5, SD
[15] = swine, 5-U s.c. bolus via CC, day 3, n = 5, SD
[16] = swine, 5-U s.c. bolus via CC, day 5, n = 5, SD
[17] = swine, 5-U s.c. bolus via IC, day 1, n = 6, SD
[18] = swine, 5-U s.c. bolus via IC, day 3, n = 6, SD
[19] = swine, 5-U s.c. bolus via IC, day 5, n = 6, SD

Substance insulin lispro has a Cmax [1] of 114.66±30 mUL, a tmax [1] of 12.00 ± 4 min and a Cmax [2] of 113.43 mUL. For the same substance, the tmax [2] was 10 min, the AUC [3] was 119.45 mULh and the Cmax [3] was 116.16 mUL. The tmax [3] was 20 min, the AUC [4] was 57.25 mULh and the Cmax [4] was 156.62 mUL. For the same substance, the tmax [4] was 10 min, the AUC [5] was 48.26 mULh and the Cmax [5] was 115.52 mUL. For the same substance, the tmax [5] was 10 min, the AUC [6] was 54.47 mULh and the Cmax [6] was 71.56 mUL. The tmax [6] was 10 min, the AUC [7] was 54.83 mULh and the Cmax [7] was 85.06 mUL. The tmax [7] was 30 min, the AUC [8] was 100.49 mULh and the Cmax [8] was 269.32 mUL. For the same substance, the tmax [8] was 20 min, the AUC [9] was 57.08 mULh and the Cmax [9] was 131.09 mUL. For the same substance, the tmax [9] was 10 min, the AUC [10] was 40.96±38 mULh and the Cmax [10] was 105.08±88 mUL. It also gave a tmax [10] of 33.33 ± 19 min, an AUC [11] of 28.30 mULh and a Cmax [11] of 68.17 mUL. The tmax [11] was 60 min, the AUC [12] was 1.77 mULh and the Cmax [12] was 47.10 mUL. The tmax [12] was 50 min, the AUC [13] was 3.27 mULh and the Cmax [13] was 29.76 mUL. For the same substance, the tmax [13] was 30 min, the “Insulin absorption, range between animals” value (swine, 5-U bolus via IC, day 3, range over six ICs) was 9–132 mU/L*h and the “tmax (time-to-peak)” value [14] was 35.0 ± 17.3 min. The “AUC60 (0-60 min after bolus)” value [14] was 50.9 ± 12.9 mU/L·h, the “Cmax (maximal plasma insulin level)” value [14] was 90.7 ± 26.8 mU/L and the “tmax (time-to-peak)” value [15] was 20.0 ± 12.2 min. The “AUC60 (0-60 min after bolus)” value [15] was 47.0 ± 25.6 mU/L·h, the “AUC (0-160 min after bolus, baseline subtracted)” value [15] was 63.1 ± 22.8 mU/L*h and the “Cmax (maximal plasma insulin level)” value [15] was 73.9 ± 41.0 mU/L. For the same substance, the “AUC60 (0-60 min after bolus)” value [16] was 54.9 ± 20.8 mU/L·h, the “AUC (0-160 min after bolus, baseline subtracted)” value [16] was 71.1 ± 29.4 mU/L*h and the “Cmax (maximal plasma insulin level)” value [16] was 114.7 ± 30.1 mU/L. For the same substance, the “tmax (time-to-peak)” value [17] was 43.3 ± 28.8 min, the “AUC60 (0-60 min after bolus)” value [17] was 44.3 ± 23.2 mU/L·h and the “Cmax (maximal plasma insulin level)” value [17] was 120.0 ± 59.3 mU/L. For the same substance, the “tmax (time-to-peak)” value [18] was 20.0 ± 6.3 min, the “AUC60 (0-60 min after bolus)” value [18] was 42.7 ± 40.0 mU/L·h and the “AUC (0-160 min after bolus, baseline subtracted)” value [18] was 63.1 ± 51.8 mU/L*h. The “Cmax (maximal plasma insulin level)” value [18] was 115.0 ± 86.2 mU/L, the “AUC60 (0-60 min after bolus)” value [19] was 29.0 ± 31.3 mU/L·h and the “AUC (0-160 min after bolus, baseline subtracted)” value [19] was 40.1 ± 37.6 mU/L*h. The “Cmax (maximal plasma insulin level)” value [19] was 105.1 ± 87.7 mU/L, the “AUC (0-160 min after bolus, baseline subtracted)” value (swine, 5-U s.c. bolus via commercial CSII catheter (CC), day 1 of wear-time, n = 5 (AUC of swine 6 not calculable), SD) was 82.7 ± 37.6 mU/L*h and the “AUC (0-160 min after bolus, baseline subtracted)” value (swine, 5-U s.c. bolus via investigational CSII catheter (IC), day 1, n = 6, SD) was 68.5 ± 36.0 mU/L*h.
